Test system: human ovarian cancer cell line SKOV3
Assay: Cell proliferation test by dispersing SKOV3 cells with growth factors (Experimental Example 4)
Type: cell-based
Conditions: 10 days
Method: By a method similar to the preparation method of medium composition in Analysis Example 1, a medium composition containing 10 (v/v) % FBS, and 0.03 (w/v) % of low-molecular agar in DMEM (manufactured by Wako Pure Chemical Industries, Ltd.) was prepared.
Then, human ovarian cancer cell line SKOV3 (manufactured by DS PHARMA BIOMEDICAL CO., LTD.) was suspended in the above-mentioned medium composition containing low-molecular agar at 37,000 cells/mL, and dispensed to the wells of a 96 well flat plane ultra-low attachment surface microplate (manufactured by Corning Incorporated, #3474) at 135 μL per 1 well. The plate was stood in a CO2 incubator (37° C., 5% CO2), and a growth factor was added the next day. A similar operation was performed with 10 (v/v) % FBS-containing DMEM free of low-molecular agar. As a growth factor, human heparin bindability epithelial cell growth factor (hHB-EGF) (manufactured by PeproTech, Inc.) at a final concentration of 30 ng/mL or 100 ng/mL, human epithelial cell growth factor (hEGF) (manufactured by PeproTech, Inc.) and human transforming growth factor α (hTGFα) (manufactured by PeproTech, Inc.) each at a final concentration of 1 ng/mL, 3 ng/mL or 10 ng/mL were added by 15 μL per 1 well.
Successively, the plate was cultured in a standing state in a CO2 incubator (37° C., 5% CO2) for 10 days. As a negative control, DMEM in an amount equal to that of a growth factor was added. CellTiter-Glo Luminescent Cell Viability Assay (manufactured by Promega) (100 μL) was added to the cell culture medium after culturing for 10 days, stood for 10 min at room temperature, and the amount of luminescence was measured by a microplate reader (“FlexStation 3”, manufactured by Molecular Devices) and according to the protocol recommended by Promega. The amount of luminescence of the medium composition alone was subtracted, whereby the number of viable cells was measured.
The relative cell number when the amount of luminescence of the negative control is 1 was determined from the amount of luminescence (corresponding to the number of SKOV3 cells) after culturing for 10 days after the addition of the growth factor, and shown in Table 11.

B1: hEGF: human epithelial cell growth factor (PeproTech) (protein, UniProt P01133 23-1207, looked up)
Pro-epidermal growth factor: PQHWSCPEGTLAGNGNSTCVGPAPFLIFSHGNSIFRIDTEGTNYEQLVVDAGVSVIMDFHYNEKRIYWVDLERQLLQRVFLNGSRQERVCNIEKNVSGMAINWINEEVIWSNQQEGIITVTDMKGNNSHILLSALKYPANVAVDPVERFIFWSSEVAGSLYRADLDGVGVKALLETSEKITAVSLDVLDKRLFWIQYNREGSNSLICSCDYDGGSVHISKHPTQHNLFAMSLFGDRIFYSTWKMKTIWIANKHTGKDMVRINLHSSFVPLGELKVVHPLAQPKAEDDTWEPEQKLCKLRKGNCSSTVCGQDLQSHLCMCAEGYALSRDRKYCEDVNECAFWNHGCTLGCKNTPGSYYCTCPVGFVLLPDGKRCHQLVSCPRNVSECSHDCVLTSEGPLCFCPEGSVLERDGKTCSGCSSPDNGGCSQLCVPLSPVSWECDCFPGYDLQLDEKSCAASGPQPFLLFANSQDIRHMHFDGTDYGTLLSQQMGMVYALDHDPVENKIYFAHTALKWIERANMDGSQRERLIEEGVDVPEGLAVDWIGRRFYWTDRGKSLIGRSDLNGKRSKIITKENISQPRGIAVHPMAKRLFWTDTGINPRIESSSLQGLGRLVIASSDLIWPSGITIDFLTDKLYWCDAKQSVIEMANLDGSKRRRLTQNDVGHPFAVAVFEDYVWFSDWAMPSVMRVNKRTGKDRVRLQGSMLKPSSLVVVHPLAKPGADPCLYQNGGCEHICKKRLGTAWCSCREGFMKASDGKTCLALDGHQLLAGGEVDLKNQVTPLDILSKTRVSEDNITESQHMLVAEIMVSDQDDCAPVGCSMYARCISEGEDATCQCLKGFAGDGKLCSDIDECEMGVPVCPPASSKCINTEGGYVCRCSEGYQGDGIHCLDIDECQLGEHSCGENASCTNTEGGYTCMCAGRLSEPGLICPDSTPPPHLREDDHHYSVRNSDSECPLSHDGYCLHDGVCMYIEALDKYACNCVVGYIGERCQYRDLKWWELRHAGHGQQQKVIVVAVCVVVLVMLLLLSLWGAHYYRTQKLLSKNPKNPYEESSRDVRSRRPADTEDGMSSCPQPWFVVIKEHQDLKNGGQPVAGEDGQAADGSMQPTSWRQEPQLCGMGTEQGCWIPVSSDKGSCPQVMERSFHMPSYGTQTLEGGVEKPHSLLSANPLWQQRALDPPHQMELTQ
modifications: Pro-epidermal growth factor
relative cell number (negative control = 1) (growth factor 1 ng/mL, low-molecular agar 0 (w/v)%): 1.380 | relative cell number (negative control = 1) (growth factor 1 ng/mL, low-molecular agar 0.03 (w/v)%): 1.413 | relative cell number (negative control = 1) (growth factor 3 ng/mL, low-molecular agar 0 (w/v)%): 1.392 | relative cell number (negative control = 1) (growth factor 3 ng/mL, low-molecular agar 0.03 (w/v)%): 1.745 | relative cell number (negative control = 1) (growth factor 10 ng/mL, low-molecular agar 0 (w/v)%): 1.678 | relative cell number (negative control = 1) (growth factor 10 ng/mL, low-molecular agar 0.03 (w/v)%): 1.984

B2: hHB-EGF: human heparin bindability epithelial cell growth factor (PeproTech) (protein, UniProt Q99075 63-148, looked up)
Heparin-binding EGF-like …: DLQEADLDLLRVTLSSKPQALATPNKEEHGKRKKKGKGLGKKRDPCLRKYKDFCIHGECKYVKELRAPSCICHPGYHGERCHGLSL
relative cell number (negative control = 1) (growth factor 30 ng/mL, low-molecular agar 0 (w/v)%): 1.358 | relative cell number (negative control = 1) (growth factor 30 ng/mL, low-molecular agar 0.03 (w/v)%): 1.774 | relative cell number (negative control = 1) (growth factor 100 ng/mL, low-molecular agar 0 (w/v)%): 1.451 | relative cell number (negative control = 1) (growth factor 100 ng/mL, low-molecular agar 0.03 (w/v)%): 1.748

— patent publication US10914725B2, “Culture medium additive, culture medium composition, and method for culturing cells or tissue using same” (NISSAN CHEMICAL INDUSTRIES, LTD., priority 2015, dated 2021)
